Measured values: article PMC11613296

Molecular target: Tau (2N4R Tau; Tau(291–391)) 2-441 (UniProt P10636)
Experiment: ELISA, immobilised Tau(291–391), soluble 2N4R Tau
Details: reference: unmodified (WT) Tau(291–391)

Row | Substance | binding against the reference (sites S352) | binding against the reference (sites S356)
1 | Tau (2N4R Tau; Tau(291–391)) 291-391 (from UniProt P10636-8) pS352 Tau(291–391) | weaker | –
2 | Tau (2N4R Tau; Tau(291–391)) 291-391 (from UniProt P10636-8) pS356 Tau(291–391) | – | weaker
